In this series the test system is Escherichia coli TOP10. The series is described as follows: shrunken log2 fold change of peptide-encoding DNA abundance (4.5 h post-induction vs induction); higher = less antimicrobial activity (less host growth inhibition). The conditions noted are these: time post-induction: 4.5 h; library: site-saturation at positions 5, 18, 19, 20.
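Note: peptides expressed intracellularly from a pBAD plasmid library in pooled LB shake-flask culture, induced with 0.3% L-arabinose, DNA abundance read by NGS, three biological replicates, DESeq2 with apeglm shrinkage.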

On to RRIRERPPRLPRPRPRPFKFPRP, for which the “shrunken log2 fold change” value is -0.0774.
As to RRIRIRPPRLPRPRPRPQTIPRP, the “shrunken log2 fold change” value is -0.337.
Turning to RRIRLRPPRLPRPRPRPITWPRP, the “shrunken log2 fold change” value was -0.543.
RRIRDRPPRLPRPRPRPIKTPRP: the “shrunken log2 fold change” value came out at 0.058.
Take RRIRIRPPRLPRPRPRPILCPRP: the “shrunken log2 fold change” value is -0.0872.
For RRIRCRPPRLPRPRPRPMYPPRP, the “shrunken log2 fold change” value was -0.375.
For the sequence RRIRIRPPRLPRPRPRPNHHPRP, the “shrunken log2 fold change” value is -0.868.
For RRIRFRPPRLPRPRPRPVRTPRP the value was 0.227.
Regarding RRIRDRPPRLPRPRPRPSDYPRP, the “shrunken log2 fold change” value was -0.566.
With RRIRGRPPRLPRPRPRPNWDPRP, the “shrunken log2 fold change” value worked out at 0.738.
For the sequence RRIRDRPPRLPRPRPRPDRFPRP, the “shrunken log2 fold change” value was found to be 0.0112.
In the case of RRIRTRPPRLPRPRPRPYQGPRP, the “shrunken log2 fold change” value was -0.0132.
Regarding RRIRMRPPRLPRPRPRPVSWPRP, the “shrunken log2 fold change” value came to 0.553.
For RRIRNRPPRLPRPRPRPCGDPRP the value was 0.0293.
RRIRVRPPRLPRPRPRPSMAPRP: the “shrunken log2 fold change” value was -0.0698.
Take RRIRQRPPRLPRPRPRPLGYPRP: the “shrunken log2 fold change” value is -0.0704.
For RRIRRRPPRLPRPRPRPKHPPRP the value was 0.294; for RRIRERPPRLPRPRPRPQNWPRP, -0.0518; for RRIRARPPRLPRPRPRPHSVPRP, 0.0268.
On to RRIRWRPPRLPRPRPRPDWIPRP, for which the “shrunken log2 fold change” value is -0.0204.
As to RRIRERPPRLPRPRPRPYDAPRP, the “shrunken log2 fold change” value was 0.835.
For the sequence RRIRQRPPRLPRPRPRPFRWPRP, the “shrunken log2 fold change” value is -0.0233.
Next, RRIRYRPPRLPRPRPRPQAFPRP: -0.142.
As for RRIRCRPPRLPRPRPRPIFSPRP, the “shrunken log2 fold change” value is -0.0342.
Regarding RRIRCRPPRLPRPRPRPSMWPRP, the “shrunken log2 fold change” value was -0.648.
On to RRIRIRPPRLPRPRPRPFDWPRP, for which the “shrunken log2 fold change” value worked out at 0.305.
RRIRHRPPRLPRPRPRPFVRPRP: the “shrunken log2 fold change” value is -0.073.
RRIRDRPPRLPRPRPRPPCWPRP: the “shrunken log2 fold change” value was 0.407.
For RRIRDRPPRLPRPRPRPEKVPRP the value was -0.00893; for RRIRRRPPRLPRPRPRPQWCPRP, 0.00425; for RRIRPRPPRLPRPRPRPVQAPRP, -0.013.
In the case of RRIRVRPPRLPRPRPRPNMIPRP, the “shrunken log2 fold change” value is -0.491.
Next, RRIRVRPPRLPRPRPRPVPLPRP: -0.121; RRIRIRPPRLPRPRPRPSYSPRP: -0.694; RRIRQRPPRLPRPRPRPNKDPRP: -0.665.
For RRIRARPPRLPRPRPRPWQVPRP, the “shrunken log2 fold change” value stood at 0.191.
Take RRIRMRPPRLPRPRPRPFSCPRP: the “shrunken log2 fold change” value is -0.115.
Next, RRIRYRPPRLPRPRPRPFFEPRP: -0.482; RRIRRRPPRLPRPRPRPHDKPRP: 0.302; RRIRTRPPRLPRPRPRPCCFPRP: -0.114.
As for RRIRYRPPRLPRPRPRPWHNPRP, the “shrunken log2 fold change” value is -0.626.
Take RRIRYRPPRLPRPRPRPWNMPRP: the “shrunken log2 fold change” value was -0.186.
For RRIRARPPRLPRPRPRPEQDPRP the value was 0.805; for RRIRVRPPRLPRPRPRPEWRPRP, 0.212; for RRIRGRPPRLPRPRPRPATVPRP, 0.244.
As for RRIRNRPPRLPRPRPRPWSAPRP, the “shrunken log2 fold change” value is -0.304.
As to RRIRRRPPRLPRPRPRPACTPRP, the “shrunken log2 fold change” value turned out to be 0.181.
In the case of RRIRDRPPRLPRPRPRPQAQPRP, the “shrunken log2 fold change” value was -0.0247.
In the case of RRIRDRPPRLPRPRPRPANDPRP, the “shrunken log2 fold change” value was -0.176.
RRIRNRPPRLPRPRPRPSYPPRP: the “shrunken log2 fold change” value turned out to be 0.0469.
For RRIRQRPPRLPRPRPRPFFWPRP, the “shrunken log2 fold change” value is 0.314.
For the sequence RRIRIRPPRLPRPRPRPNHLPRP, the “shrunken log2 fold change” value is -0.844.
On to RRIRWRPPRLPRPRPRPAQVPRP, for which the “shrunken log2 fold change” value turned out to be 0.565.
For RRIRVRPPRLPRPRPRPHDKPRP the value was -0.123.
As to RRIRSRPPRLPRPRPRPIYKPRP, the “shrunken log2 fold change” value is -0.243.
As to RRIRQRPPRLPRPRPRPIMDPRP, the “shrunken log2 fold change” value was -0.179.
Consider RRIRVRPPRLPRPRPRPPNQPRP, for which the “shrunken log2 fold change” value stood at 0.184.
Next, RRIRSRPPRLPRPRPRPCPGPRP: -0.234; RRIRNRPPRLPRPRPRPAVEPRP: -0.0887.
Take RRIRYRPPRLPRPRPRPIITPRP: the “shrunken log2 fold change” value is -0.667.
Regarding RRIRGRPPRLPRPRPRPWNLPRP, the “shrunken log2 fold change” value was found to be 0.000264.
For RRIRTRPPRLPRPRPRPTMFPRP the value was -0.148.
With RRIRTRPPRLPRPRPRPSPNPRP, the “shrunken log2 fold change” value is -0.337.
For the sequence RRIRSRPPRLPRPRPRPHMMPRP, the “shrunken log2 fold change” value was -0.113.
Consider RRIRQRPPRLPRPRPRPNSCPRP, for which the “shrunken log2 fold change” value is 0.0314.
For RRIRMRPPRLPRPRPRPFTVPRP, the “shrunken log2 fold change” value was -0.00884.
As to RRIRNRPPRLPRPRPRPSFEPRP, the “shrunken log2 fold change” value was -0.0494.
Next, RRIRGRPPRLPRPRPRPFEGPRP: 0.0595.
Consider RRIRSRPPRLPRPRPRPSMAPRP, for which the “shrunken log2 fold change” value was found to be 0.223.
On to RRIRKRPPRLPRPRPRPKWWPRP, for which the “shrunken log2 fold change” value was found to be 0.238.
With RRIRPRPPRLPRPRPRPSILPRP, the “shrunken log2 fold change” value is -0.0331.
On to RRIRIRPPRLPRPRPRPVDYPRP, for which the “shrunken log2 fold change” value is -0.0672.
Regarding RRIRGRPPRLPRPRPRPEHRPRP, the “shrunken log2 fold change” value stood at 0.102.
As to RRIRERPPRLPRPRPRPPQDPRP, the “shrunken log2 fold change” value was determined as 0.113.
Regarding RRIRGRPPRLPRPRPRPYPIPRP, the “shrunken log2 fold change” value was found to be 3.7.
With RRIRWRPPRLPRPRPRPIWIPRP, the “shrunken log2 fold change” value was -0.186.
On to RRIRRRPPRLPRPRPRPYDSPRP, for which the “shrunken log2 fold change” value is -0.545.
For the sequence RRIRKRPPRLPRPRPRPNVDPRP, the “shrunken log2 fold change” value worked out at 0.17.
For RRIRTRPPRLPRPRPRPGPLPRP, the “shrunken log2 fold change” value worked out at 0.185.
With RRIRCRPPRLPRPRPRPHDTPRP, the “shrunken log2 fold change” value was -0.427.
Next, RRIRARPPRLPRPRPRPQAWPRP: 0.376.
Next, RRIRLRPPRLPRPRPRPASDPRP: -0.19; RRIRHRPPRLPRPRPRPRFVPRP: -0.0283; RRIRVRPPRLPRPRPRPTLYPRP: -0.155.
For the sequence RRIRRRPPRLPRPRPRPSIEPRP, the “shrunken log2 fold change” value is -0.232.
Next, RRIRKRPPRLPRPRPRPNKLPRP: -0.0293; RRIRARPPRLPRPRPRPRVGPRP: 0.352.
Take RRIRNRPPRLPRPRPRPHDYPRP: the “shrunken log2 fold change” value is 0.0503.
For the sequence RRIRSRPPRLPRPRPRPKRNPRP, the “shrunken log2 fold change” value came to 0.228.
As for RRIRHRPPRLPRPRPRPFFDPRP, the “shrunken log2 fold change” value is -0.642.
Regarding RRIRIRPPRLPRPRPRPRTFPRP, the “shrunken log2 fold change” value is -0.143.
Take RRIRPRPPRLPRPRPRPNKWPRP: the “shrunken log2 fold change” value was -0.232.
Consider RRIRYRPPRLPRPRPRPPTYPRP, for which the “shrunken log2 fold change” value is -0.615.
Next, RRIRARPPRLPRPRPRPVKAPRP: 0.0269.
Consider RRIRSRPPRLPRPRPRPRVLPRP, for which the “shrunken log2 fold change” value is -0.285.
For RRIRKRPPRLPRPRPRPCMVPRP the value was 0.309; for RRIRRRPPRLPRPRPRPNLVPRP, -0.023; for RRIRGRPPRLPRPRPRPDECPRP, -0.00184.
RRIRLRPPRLPRPRPRPQFFPRP: the “shrunken log2 fold change” value is 0.551.
RRIRSRPPRLPRPRPRPKKQPRP: the “shrunken log2 fold change” value was found to be 0.0417.
On to RRIRYRPPRLPRPRPRPMYWPRP, for which the “shrunken log2 fold change” value was -0.451.
Consider RRIRSRPPRLPRPRPRPDETPRP, for which the “shrunken log2 fold change” value is -0.0257.
As to RRIRYRPPRLPRPRPRPSEVPRP, the “shrunken log2 fold change” value was -0.177.
Regarding RRIRQRPPRLPRPRPRPRARPRP, the “shrunken log2 fold change” value amounted to 0.579.
Regarding RRIRMRPPRLPRPRPRPDFHPRP, the “shrunken log2 fold change” value was -0.129.
RRIRMRPPRLPRPRPRPADKPRP: the “shrunken log2 fold change” value worked out at 0.318.
Next, RRIRERPPRLPRPRPRPWGPPRP: -0.0024; RRIRCRPPRLPRPRPRPCNKPRP: -0.671.
For RRIRTRPPRLPRPRPRPVTKPRP the value was 0.0906; for RRIRQRPPRLPRPRPRPIRMPRP, -0.291.
In the case of RRIRARPPRLPRPRPRPEMFPRP, the “shrunken log2 fold change” value is 0.522.
On to RRIRPRPPRLPRPRPRPDIPPRP, for which the “shrunken log2 fold change” value was -0.219.
With RRIRQRPPRLPRPRPRPNLHPRP, the “shrunken log2 fold change” value is -0.255.
For RRIRGRPPRLPRPRPRPFFPPRP, the “shrunken log2 fold change” value was 0.154.
Regarding RRIRIRPPRLPRPRPRPSLTPRP, the “shrunken log2 fold change” value was -1.12.
In the case of RRIRSRPPRLPRPRPRPAPIPRP, the “shrunken log2 fold change” value was found to be 0.133.
In the case of RRIRDRPPRLPRPRPRPLIQPRP, the “shrunken log2 fold change” value worked out at 0.365.
As to RRIRMRPPRLPRPRPRPAWKPRP, the “shrunken log2 fold change” value amounted to 0.14.
For RRIRHRPPRLPRPRPRPRTGPRP the value was -0.111; for RRIRQRPPRLPRPRPRPWIAPRP, -0.161.
Regarding RRIRVRPPRLPRPRPRPPTAPRP, the “shrunken log2 fold change” value was 0.43.
Take RRIRYRPPRLPRPRPRPHLFPRP: the “shrunken log2 fold change” value is -0.313.
For the sequence RRIRHRPPRLPRPRPRPVQRPRP, the “shrunken log2 fold change” value was -0.0182.
RRIRARPPRLPRPRPRPLEAPRP: the “shrunken log2 fold change” value came to 1.21.
Next, RRIRQRPPRLPRPRPRPNEMPRP: 0.105.

The record behind these values is the supplement of paper PMC9112550, “Optimization of the antimicrobial peptide Bac7 by deep mutational scanning” (BMC Biology, 2022).
